± gives the uncertainty stated by the source.
B1: Chromodomain-helicase-DNA-binding protein 4, residues 444 to 496; numbered along this chain, Q14839 (parent)
chain: EDDHHMEFCRVCKDGGELLCCDTCPSSYHIHCLNPPLPEIPNGEWLCPRCTCP

Variants of: B1
Assay: abundance fitness (aPCA) (normalised: wild type 0, dead -1); higher = more abundant; growth selection in yeast, the domain comes from the species named
Settings: Homo sapiens

Variant	abundance fitness
P35H	-0.386 ± 0.071
P35V	-0.399 ± 0.059
P35N	-0.302 ± 0.064
P35A	-0.296 ± 0.057
P35W	-0.593 ± 0.047
P35L	-0.378 ± 0.046
P35I	-0.432 ± 0.078
P35G	-0.289 ± 0.067
P35S	-0.261 ± 0.042
P35K	-0.199 ± 0.072
P35F	-0.45 ± 0.05
P35D	-0.262 ± 0.093
P35E	-0.076 ± 0.088
P35Y	-0.301 ± 0.052
P35Q	-0.226 ± 0.064
P35T	-0.198 ± 0.051
L37E	-0.249 ± 0.094
L37S	-0.194 ± 0.042
L37C	-0.194 ± 0.053
L37Q	-0.135 ± 0.054
L37I	-0.049 ± 0.066
L37M	-0.115 ± 0.05
L37V	-0.066 ± 0.053
L37W	-0.248 ± 0.063

Variant	abundance fitness
L37P	0.018 ± 0.044
L37Y	-0.274 ± 0.057
L37F	-0.271 ± 0.056
L37R	-0.233 ± 0.051
L37T	-0.23 ± 0.055
L37N	-0.244 ± 0.056
H31P	-0.354 ± 0.059
H31R	-0.042 ± 0.053
H31M	-0.063 ± 0.067
H31Y	-0.097 ± 0.046
H31D	-0.197 ± 0.081
H31E	-0.046 ± 0.05
H31Q	-0.042 ± 0.063
H31W	-0.285 ± 0.056
H31L	-0.194 ± 0.043
H31I	-0.217 ± 0.062
H31G	0.002 ± 0.06
H31F	0.017 ± 0.056
H31V	-0.068 ± 0.059
H31S	-0.203 ± 0.051
H31N	0.106 ± 0.074
H31K	0.035 ± 0.05
H31A	-0.138 ± 0.057
H31C	-0.046 ± 0.068

Variant	abundance fitness
H31T	-0.042 ± 0.054
P38M	-0.082 ± 0.043
P38G	-0.196 ± 0.078
P38R	-0.046 ± 0.049
P38I	-0.059 ± 0.051
P38N	0.065 ± 0.066
P38L	-0.115 ± 0.046
P38A	-0.014 ± 0.06
P38D	-0.031 ± 0.064
P38F	-0.153 ± 0.054
P38K	0.088 ± 0.068
P38Q	0.085 ± 0.062
P38E	-0.096 ± 0.099
P38H	-0.008 ± 0.061
P38S	-0.075 ± 0.045
H29W	-1.1 ± 0.1
H29A	-0.748 ± 0.056
H29Q	-0.833 ± 0.11
H29Y	-0.787 ± 0.072
H29R	-0.97 ± 0.059
H29P	-0.814 ± 0.072
H29N	-0.556 ± 0.12
H29C	-0.317 ± 0.063
H29I	-0.822 ± 0.09

Variant	abundance fitness
H29T	-0.921 ± 0.048
H29F	-0.918 ± 0.11
H29M	-0.998 ± 0.097
H29S	-0.728 ± 0.054
H29D	-0.811 ± 0.079
H29L	-0.983 ± 0.066
H29V	-1.06 ± 0.063
H29E	-0.804 ± 0.11
N34K	0.052 ± 0.071
N34F	-0.158 ± 0.042
N34D	-0.114 ± 0.09
N34P	-0.219 ± 0.054
N34S	0.018 ± 0.048
N34R	-0.205 ± 0.053
N34H	-0.262 ± 0.069
N34I	-0.075 ± 0.051
N34L	-0.197 ± 0.046
N34E	-0.145 ± 0.091
N34G	-0.345 ± 0.075
N34M	-0.127 ± 0.068
N34C	-0.155 ± 0.067
N34T	-0.014 ± 0.05
N34V	-0.073 ± 0.061
N34A	-0.08 ± 0.057

Variant	abundance fitness
L33M	-0.326 ± 0.067
L33I	-0.085 ± 0.042
L33C	-0.421 ± 0.051
L33W	-0.954 ± 0.14
L33G	-0.598 ± 0.087
L33T	-0.361 ± 0.05
L33K	-0.61 ± 0.055
L33D	-0.561 ± 0.092
L33S	-0.54 ± 0.044
L33E	-0.685 ± 0.2
L33F	-0.373 ± 0.048
L33N	-0.732 ± 0.061
L33H	-0.626 ± 0.053
L33A	-0.429 ± 0.057
L33R	-0.787 ± 0.073
L33P	-0.703 ± 0.052
L33Q	-0.602 ± 0.063
P36G	-0.244 ± 0.064
P36K	0.102 ± 0.073
P36D	-0.323 ± 0.1
P36Q	-0.026 ± 0.062
P36L	-0.458 ± 0.045
P36Y	-0.539 ± 0.06
P36E	-0.33 ± 0.1

Variant	abundance fitness
P36R	-0.095 ± 0.046
P36T	-0.18 ± 0.049
P36N	-0.294 ± 0.074
P36M	-0.274 ± 0.052
P36W	-0.546 ± 0.086
P36V	-0.22 ± 0.068
P36C	-0.546 ± 0.088
P36F	-0.604 ± 0.068
P36S	-0.1 ± 0.047
P36I	-0.195 ± 0.054
P36A	-0.035 ± 0.048
I30R	-0.016 ± 0.061
I30H	-0.106 ± 0.061
I30G	-0.115 ± 0.058
I30Q	-0.159 ± 0.06
I30C	-0.108 ± 0.076
I30K	-0.047 ± 0.08
I30M	0.026 ± 0.062
I30L	-0.023 ± 0.043
I30E	-0.072 ± 0.07
I30F	-0.037 ± 0.067
I30D	-0.473 ± 0.1
I30T	-0.044 ± 0.055
I30S	-0.018 ± 0.046

Variant	abundance fitness
I30N	-0.072 ± 0.062
I30Y	-0.102 ± 0.057
I30A	-0.003 ± 0.056
I30W	-0.238 ± 0.052
I30V	0.005 ± 0.054
C32A	-0.882 ± 0.067
C32S	-0.821 ± 0.052
C32M	-1 ± 0.079
C32D	-0.68 ± 0.1
C32N	-1.15 ± 0.14
C32L	-0.99 ± 0.052
C32V	-0.914 ± 0.063
C32Q	-0.369 ± 0.085
C32F	-1.02 ± 0.059
C32K	-0.933 ± 0.094
C32P	-0.937 ± 0.074
C32R	-0.857 ± 0.057
C32E	-0.66 ± 0.1
C32W	-1.05 ± 0.1
C32I	-0.898 ± 0.083
Y28T	-0.531 ± 0.069
Y28W	-0.259 ± 0.053
Y28V	-0.471 ± 0.076
